# Reference: patent US20110028686A1 (published 2011)
# Square brackets hold non-standard residues; d marks the D form. Ends that are not written are not given here. * marks the point of attachment. Fluorescein(5-NHCOCH2) = O=C(C*)Nc1ccc2c(c1)C(=O)OC21c2ccc(O)cc2Oc2cc(O)ccc21; pS = N[C@@H](COP(=O)(O)O)C(=O)O
# Tests used:
# HisKIX [1] = target: T1, HisKIX (UniProt P45481 586-672); experiment: FP, fluorescein-labelled peptide titrated with HisKIX, 25 C
# T1 construct: range 586-672; the residue numbers fit mouse CBP; also called His-tagged CBP KIX domain; CBP KIX; not shown: amino-terminal hexahistidine tag and linker of pET15b
# HisKIX [2] = target: T1, HisKIX; experiment: FP with HisKIX; end of the range assigned by Table 1
# HisKIX [3] = target: T1, HisKIX; experiment: FP with HisKIX
# T1 sequence (P45481 586-672): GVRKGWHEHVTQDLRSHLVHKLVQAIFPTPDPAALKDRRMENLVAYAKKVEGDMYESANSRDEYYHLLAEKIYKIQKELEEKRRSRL
binder,measurement,setting,value
RRP[pS]YRKILNDLSSDAPGVC(acetamidofluorescein)-NH2 (also called KID-B (phosphorylated); CREB KID residues 130-148) [KID-B^P],Kd,HisKIX [1],51.6 µM
"GLSWPTYHGDDAPVRRLSFFYILLDLYLDAPGVC(Fluorescein(5-NHCOCH2))-NH2 (designed binder, N-terminus assumed; SMILES CC[C@H](C)[C@H](NC(=O)[C@H](Cc1ccc(O)cc1)NC(=O)[C@H](Cc1ccccc1)NC(=O)[C@H](Cc1ccccc1)NC(=O)[C@H](CO)NC(=O)[C@H](CC(C)C)NC(=O)[C@H](CCCNC(=N)N)NC(=O)[C@H](CCCNC(=N)N)NC(=O)[C@@H](NC(=O)[C@@H]1CCCN1C(=O)[C@H](C)NC(=O)[C@H](CC(=O)O)NC(=O)[C@H](CC(=O)O)NC(=O)CNC(=O)[C@H](Cc1c[nH]cn1)NC(=O)[C@H](Cc1ccc(O)cc1)NC(=O)[C@@H](NC(=O)[C@@H]1CCCN1C(=O)[C@H](Cc1c[nH]c2ccccc12)NC(=O)[C@H](CO)NC(=O)[C@H](CC(C)C)NC(=O)CN)[C@@H](C)O)C(C)C)C(=O)N[C@@H](CC(C)C)C(=O)N[C@@H](CC(C)C)C(=O)N[C@@H](CC(=O)O)C(=O)N[C@@H](CC(C)C)C(=O)N[C@@H](Cc1ccc(O)cc1)C(=O)N[C@@H](CC(C)C)C(=O)N[C@@H](CC(=O)O)C(=O)N[C@@H](C)C(=O)N1CCC[C@H]1C(=O)NCC(=O)N[C@H](C(=O)N[C@@H](CSCC(=O)Nc1ccc2c(c1)C(=O)OC21c2ccc(O)cc2Oc2cc(O)ccc21)C(N)=O)C(C)C, also called PPKID5 (unphosphorylated)) [PPKID5^U]",Kd,HisKIX [1],6.6 µM
"GASDMTYWGDDAPVRRL[pS]FFYILLDLYLDAPGVC(Fluorescein(5-NHCOCH2))-NH2 (designed binder, also called PPKID1 (phosphorylated)) [PPKID1^P]",fold enhancement in affinity upon phosphorylation,HisKIX [2],6 to 41 fold
same,fold higher affinity than KID-B^P,HisKIX [2],43 to 87 fold
same,ΔΔG upon phosphorylation,HisKIX [2],-2.2 kcal/mol
same,Kd,HisKIX [1],0.591 µM
"GMSRVTPGGDDAPVRRLSFFYILRDLYLDAPGVC(acetamidofluorescein)-NH2 (designed binder, not fully specified, also called PPKID2 (unphosphorylated)) [PPKID2^U]",Kd,HisKIX [1],12.6 µM
"GLSWPTYHGDDAPVRRL[pS]FFYILLDLYLDAPGVC(Fluorescein(5-NHCOCH2))-NH2 (designed binder, N-terminus assumed; SMILES CC[C@H](C)[C@H](NC(=O)[C@H](Cc1ccc(O)cc1)NC(=O)[C@H](Cc1ccccc1)NC(=O)[C@H](Cc1ccccc1)NC(=O)[C@H](COP(=O)(O)O)NC(=O)[C@H](CC(C)C)NC(=O)[C@H](CCCNC(=N)N)NC(=O)[C@H](CCCNC(=N)N)NC(=O)[C@@H](NC(=O)[C@@H]1CCCN1C(=O)[C@H](C)NC(=O)[C@H](CC(=O)O)NC(=O)[C@H](CC(=O)O)NC(=O)CNC(=O)[C@H](Cc1c[nH]cn1)NC(=O)[C@H](Cc1ccc(O)cc1)NC(=O)[C@@H](NC(=O)[C@@H]1CCCN1C(=O)[C@H](Cc1c[nH]c2ccccc12)NC(=O)[C@H](CO)NC(=O)[C@H](CC(C)C)NC(=O)CN)[C@@H](C)O)C(C)C)C(=O)N[C@@H](CC(C)C)C(=O)N[C@@H](CC(C)C)C(=O)N[C@@H](CC(=O)O)C(=O)N[C@@H](CC(C)C)C(=O)N[C@@H](Cc1ccc(O)cc1)C(=O)N[C@@H](CC(C)C)C(=O)N[C@@H](CC(=O)O)C(=O)N[C@@H](C)C(=O)N1CCC[C@H]1C(=O)NCC(=O)N[C@H](C(=O)N[C@@H](CSCC(=O)Nc1ccc2c(c1)C(=O)OC21c2ccc(O)cc2Oc2cc(O)ccc21)C(N)=O)C(C)C, also called PPKID5 (phosphorylated)) [PPKID5^P]",Kd,HisKIX [1],0.534 µM
"GLSWKTDPGDDAPVRRLSFFYILLDLYLDAPGVC(Fluorescein(5-NHCOCH2))-NH2 (designed binder, N-terminus assumed; SMILES CC[C@H](C)[C@H](NC(=O)[C@H](Cc1ccc(O)cc1)NC(=O)[C@H](Cc1ccccc1)NC(=O)[C@H](Cc1ccccc1)NC(=O)[C@H](CO)NC(=O)[C@H](CC(C)C)NC(=O)[C@H](CCCNC(=N)N)NC(=O)[C@H](CCCNC(=N)N)NC(=O)[C@@H](NC(=O)[C@@H]1CCCN1C(=O)[C@H](C)NC(=O)[C@H](CC(=O)O)NC(=O)[C@H](CC(=O)O)NC(=O)CNC(=O)[C@@H]1CCCN1C(=O)[C@H](CC(=O)O)NC(=O)[C@@H](NC(=O)[C@H](CCCCN)NC(=O)[C@H](Cc1c[nH]c2ccccc12)NC(=O)[C@H](CO)NC(=O)[C@H](CC(C)C)NC(=O)CN)[C@@H](C)O)C(C)C)C(=O)N[C@@H](CC(C)C)C(=O)N[C@@H](CC(C)C)C(=O)N[C@@H](CC(=O)O)C(=O)N[C@@H](CC(C)C)C(=O)N[C@@H](Cc1ccc(O)cc1)C(=O)N[C@@H](CC(C)C)C(=O)N[C@@H](CC(=O)O)C(=O)N[C@@H](C)C(=O)N1CCC[C@H]1C(=O)NCC(=O)N[C@H](C(=O)N[C@@H](CSCC(=O)Nc1ccc2c(c1)C(=O)OC21c2ccc(O)cc2Oc2cc(O)ccc21)C(N)=O)C(C)C) [PPKID8^U]",fold enhancement in affinity over KID-AB^U,HisKIX [2],≥ 37 fold
same,fold enhancement in affinity over KID-B^U,HisKIX [2],≥ 96 fold
same,fold enhancement in affinity over peptide C^U,HisKIX [2],7 to 14 fold
same,Kd,HisKIX [1],3.1 µM
"GPSQPTYPGDDAPVRRLSFFYILLDLYLDAPGVC(Fluorescein(5-NHCOCH2))-NH2 (designed binder, N-terminus assumed; SMILES CC[C@H](C)[C@H](NC(=O)[C@H](Cc1ccc(O)cc1)NC(=O)[C@H](Cc1ccccc1)NC(=O)[C@H](Cc1ccccc1)NC(=O)[C@H](CO)NC(=O)[C@H](CC(C)C)NC(=O)[C@H](CCCNC(=N)N)NC(=O)[C@H](CCCNC(=N)N)NC(=O)[C@@H](NC(=O)[C@@H]1CCCN1C(=O)[C@H](C)NC(=O)[C@H](CC(=O)O)NC(=O)[C@H](CC(=O)O)NC(=O)CNC(=O)[C@@H]1CCCN1C(=O)[C@H](Cc1ccc(O)cc1)NC(=O)[C@@H](NC(=O)[C@@H]1CCCN1C(=O)[C@H](CCC(N)=O)NC(=O)[C@H](CO)NC(=O)[C@@H]1CCCN1C(=O)CN)[C@@H](C)O)C(C)C)C(=O)N[C@@H](CC(C)C)C(=O)N[C@@H](CC(C)C)C(=O)N[C@@H](CC(=O)O)C(=O)N[C@@H](CC(C)C)C(=O)N[C@@H](Cc1ccc(O)cc1)C(=O)N[C@@H](CC(C)C)C(=O)N[C@@H](CC(=O)O)C(=O)N[C@@H](C)C(=O)N1CCC[C@H]1C(=O)NCC(=O)N[C@H](C(=O)N[C@@H](CSCC(=O)Nc1ccc2c(c1)C(=O)OC21c2ccc(O)cc2Oc2cc(O)ccc21)C(N)=O)C(C)C, also called PPKID4 (unphosphorylated)) [PPKID4^U]",Kd,HisKIX [1],12.1 µM
"GISWPTFEGDDAPVRRLEFFYILLDLYLDAPGVC(Fluorescein(5-NHCOCH2))-NH2 (designed binder, N-terminus assumed; SMILES CC[C@H](C)[C@H](NC(=O)CN)C(=O)N[C@@H](CO)C(=O)N[C@@H](Cc1c[nH]c2ccccc12)C(=O)N1CCC[C@H]1C(=O)N[C@H](C(=O)N[C@@H](Cc1ccccc1)C(=O)N[C@@H](CCC(=O)O)C(=O)NCC(=O)N[C@@H](CC(=O)O)C(=O)N[C@@H](CC(=O)O)C(=O)N[C@@H](C)C(=O)N1CCC[C@H]1C(=O)N[C@H](C(=O)N[C@@H](CCCNC(=N)N)C(=O)N[C@@H](CCCNC(=N)N)C(=O)N[C@@H](CC(C)C)C(=O)N[C@@H](CCC(=O)O)C(=O)N[C@@H](Cc1ccccc1)C(=O)N[C@@H](Cc1ccccc1)C(=O)N[C@@H](Cc1ccc(O)cc1)C(=O)N[C@H](C(=O)N[C@@H](CC(C)C)C(=O)N[C@@H](CC(C)C)C(=O)N[C@@H](CC(=O)O)C(=O)N[C@@H](CC(C)C)C(=O)N[C@@H](Cc1ccc(O)cc1)C(=O)N[C@@H](CC(C)C)C(=O)N[C@@H](CC(=O)O)C(=O)N[C@@H](C)C(=O)N1CCC[C@H]1C(=O)NCC(=O)N[C@H](C(=O)N[C@@H](CSCC(=O)Nc1ccc2c(c1)C(=O)OC21c2ccc(O)cc2Oc2cc(O)ccc21)C(N)=O)C(C)C)[C@@H](C)CC)C(C)C)[C@@H](C)O) [PPKID6 S18E]",fold decrease in affinity against PPKID6^U,HisKIX [3],7 fold
same,ΔΔG relative to PPKID6^U,HisKIX [3],1.2 kcal/mol
same,Kd,HisKIX [1],10.9 µM
GLSPYTEWGDDAPVRRLSFFYILLDLYLDAPGVC(acetamidofluorescein)-NH2 (designed binder) [PPKID7^U],Kd,HisKIX [1],2.3 µM
"H-GASPHTSSGDDAPVRRL[pS]FFDILLDLYLDAPGVC(Fluorescein(5-NHCOCH2))-NH2 (designed binder, not fully specified, also called PPKID3 (phosphorylated)) [PPKID3^P]",fold enhancement in affinity upon phosphorylation,HisKIX [2],6 to 41 fold
same,fold higher affinity than KID-B^P,HisKIX [2],43 to 87 fold
same,ΔΔG upon phosphorylation,HisKIX [2],-1 kcal/mol
same,Kd,HisKIX [1],1.2 µM
"GASDMTYWGDDAPVRRLSFFYILLDLYLDAPGVC(acetamidofluorescein)-NH2 (designed binder, also called PPKID1 (unphosphorylated)) [PPKID1^U]",fold change in affinity against peptide C^U,HisKIX [2],1 to 3 fold
same,ΔΔG relative to peptide C^U,HisKIX [2],0.1 kcal/mol
same,Kd,HisKIX [1],24.1 µM
"H-GMSRVTPGGDDAPVRRL[pS]FFYILRDLYLDAPGVC(Fluorescein(5-NHCOCH2))-NH2 (designed binder, not fully specified, also called PPKID2 (phosphorylated)) [PPKID2^P]",Kd,HisKIX [1],0.729 µM
"GASPHTSSGDDAPVRRLSFFDILLDLYLDAPGVC(acetamidofluorescein)-NH2 (designed binder, not fully specified, also called PPKID3 (unphosphorylated)) [PPKID3^U]",fold change in affinity against peptide C^U,HisKIX [2],1 to 3 fold
same,ΔΔG relative to peptide C^U,HisKIX [2],-0.7 kcal/mol
same,Kd,HisKIX [1],6.7 µM
